Experiment [1] concerns the target HLA-A*26:01. Nature of the experiment: IEDB peptide-MHC binding, purified MHC/direct/fluorescence; filed as Kd, often an IC50 or EC50 that approximates it; ≥ and ≤ were set here for values at or beyond the usual limits of such assays.
For the next experiment, the target named is HLA-B*27:05. The description is as above.
Experiment [2] addresses HLA-A*69:01. Described as above.
The target in the next experiment is HLA-A*01:01. Described as above.
For another experiment, the target named is HLA-A*31:01. Described as above.
A further experiment deals with HLA-B*40:01. The description is as above.
In experiment [3] the target is HLA-A*02:01. The experiment is described as above.
Experiment [4] has as its target HLA-B*15:01. The experiment is described as above.
Experiment [5] has as its target HLA-B*08:01. The description is as above.
In the next experiment the target is HLA-B*07:02. Described as above.
The target of a further experiment is HLA-A*30:01. The experiment is described as above.
The target of another experiment is HLA-A*11:01. Described as above.
Another experiment concerns the target HLA-A*24:03. The experiment is described as above.
Experiment [6] has as its target HLA-B*58:01. Described as above.
The target of another experiment is HLA-A*03:01. The description is as above.
Another experiment has as its target HLA-B*08:02. The experiment is described as above. The conditions noted are these: source organism: dengue virus type 4.
The next experiment deals with HLA-C*06:02. Described as above.
Another experiment has as its target HLA-C*07:02. Described as above. The conditions noted are these: source organism: Dengue virus 2 Jamaica/1409/1983.
In the next experiment the target is HLA-B*39:01. Nature of the experiment: IEDB peptide-MHC binding, purified MHC/competitive/fluorescence; filed as Kd, often an IC50 or EC50 that approximates it; ≥ and ≤ were set here for values at or beyond the usual limits of such assays. The note with it: source organism: Zaire ebolavirus.
Experiment [7] addresses HLA-A*26:01. Described as above. The conditions noted are these: source organism: Zaire ebolavirus.
Another experiment addresses HLA-B*46:01. Described as above.
Experiment [8] concerns the target HLA-A*69:01. The description is as above. The note with it: source organism: Zaire ebolavirus.
For a further experiment, the target named is HLA-B*27:03. The description is as above. The note with it: source organism: Zaire ebolavirus.
Experiment [9] deals with HLA-A*02:01. Described as above.
Experiment [10] deals with HLA-B*15:01. The description is as above. The note with it: source organism: Zaire ebolavirus.
In another experiment the target is HLA-B*18:01. The experiment is described as above. The note with it: source organism: Zaire ebolavirus.
The target of another experiment is HLA-B*51:01. The experiment is described as above. The conditions noted are these: source organism: Zaire ebolavirus.
The target of experiment [11] is HLA-B*58:01. Described as above. The conditions noted are these: source organism: Zaire ebolavirus.
In the next experiment the target is HLA-A*02:16. Nature of the experiment: IEDB peptide-MHC binding, purified MHC/direct/fluorescence; filed as Kd, often an IC50 or EC50 that approximates it; ≥ and ≤ were set here for values at or beyond the usual limits of such assays. The note with it: source organism: Zaire ebolavirus.
The target of another experiment is HLA-A*02:03. Described as above. The note with it: source organism: Zaire ebolavirus.
Another experiment concerns the target HLA-A*02:12. The description is as above. The conditions noted are these: source organism: Zaire ebolavirus.
Another experiment deals with HLA-A*68:02. Described as above. The conditions noted are these: source organism: Zaire ebolavirus.
Another experiment concerns the target HLA-A*02:19. The experiment is described as above. The conditions noted are these: source organism: Zaire ebolavirus.
The target of another experiment is HLA-A*02:11. The description is as above. The conditions noted are these: source organism: Zaire ebolavirus.
The target of a further experiment is HLA-C*14:02. The description is as above.
The target in another experiment is HLA-C*12:03. Described as above.
A further experiment deals with HLA-C*03:03. The experiment is described as above. The note with it: source organism: Bacillus mycoides KBAB4.
For experiment [12], the target named is HLA-B*08:01. Nature of the experiment: IEDB peptide-MHC binding, purified MHC/competitive/fluorescence; filed as Kd, often an IC50 or EC50 that approximates it; ≥ and ≤ were set here for values at or beyond the usual limits of such assays. The note with it: source organism: Bacillus anthracis str. A0488.
[13] abbreviates: source organism: Giardia lamblia ATCC 50803.
[14] abbreviates: source organism: Zaire ebolavirus.
The mark [15] stands for this setting: source organism: West Nile virus.
[16] abbreviates: source organism: Bacillus mycoides KBAB4.
The mark [17] stands for this setting: source organism: Pseudomonas aeruginosa UCBPP-PA14.
The mark [18] stands for this setting: source organism: Pseudomonas aeruginosa.

Data on nine sequences can be found in the Immune Epitope Database (IEDB).

KVGVYKMHK: the Kd was no less than 20 µM with HLA-A*26:01 [1] (setting [13]); no less than 20 µM with HLA-B*27:05 (setting [13]); no less than 20 µM with HLA-A*69:01 [2] (setting [13]); no less than 20 µM with HLA-A*01:01 (setting [13]); 0.0552 µM with HLA-A*31:01 (setting [13]); no less than 20 µM in the experiment with HLA-B*40:01 (setting [13]). For the same sequence, the Kd with HLA-A*02:01 [3] (setting [13]) was no less than 20 µM; with HLA-B*15:01 [4] (setting [13]), no less than 20 µM; in the experiment with HLA-B*08:01 [5] (setting [13]), no less than 20 µM; with HLA-B*07:02 (setting [13]) it was no less than 20 µM; in the experiment with HLA-A*30:01 (setting [13]), 0.0152 µM; in the experiment with HLA-A*11:01 (setting [13]), 0.0334 µM. Moreover, the Kd with HLA-A*24:03 (setting [13]) was no less than 20 µM; in the experiment with HLA-B*58:01 [6] (setting [13]), no less than 20 µM; with HLA-A*03:01 (setting [13]), 0.163 µM.

FRKKRLTIM: the Kd with HLA-B*08:02 was found to be 4.43 µM; with HLA-C*06:02 (source organism: Dengue virus 2 Jamaica/1409/1983) it was 0.018 µM; with HLA-C*07:02, 0.446 µM.

On to VLMKQIPIW, for which the Kd in the experiment with HLA-B*39:01, with HLA-A*26:01 [7], with HLA-B*46:01 (setting [14]), with HLA-A*69:01 [8], with HLA-B*27:03 and with HLA-A*02:01 [9] (setting [14]) was no less than 20 µM each time. Moreover, the Kd with HLA-B*15:01 [10] was no less than 20 µM; in the experiment with HLA-B*18:01 it was no less than 20 µM; with HLA-B*51:01 it was no less than 20 µM; with HLA-B*58:01 [11] it was 0.0013 µM; with HLA-A*02:16, no less than 20 µM; with HLA-A*02:03 it was no less than 20 µM. In addition, the Kd with HLA-A*02:12, in the experiment with HLA-A*68:02, with HLA-A*03:01 (setting [14]), with HLA-A*02:19 and with HLA-A*02:11 was no less than 20 µM each time.

Sequence AYVTWIALM showed a Kd with HLA-C*14:02 (source organism: Mus musculus) of 0.027 µM.

Take SLYAVTTAV: the Kd with HLA-A*02:01 [9] (setting [15]) came to 0.00137 µM; with HLA-C*12:03 (setting [15]) it was 0.027 µM.

As to KQYNVTQAF, the Kd with HLA-B*46:01 (source organism: SARS-CoV1) was 0.0652 µM; with HLA-B*27:05 (source organism: SARS-CoV1), 0.538 µM; in the experiment with HLA-A*31:01 (source organism: SARS-CoV1) it was 0.449 µM; with HLA-B*40:01 (source organism: SARS-CoV1), 5.33 µM; with HLA-A*02:01 [3] (source organism: SARS-CoV1), no less than 51.3 µM; with HLA-B*15:01 [4] (source organism: SARS-CoV1) it was 0.0871 µM. Further, the Kd was 0.002 µM with HLA-C*14:02 (source organism: SARS-CoV1), no less than 28.4 µM with HLA-A*11:01 (source organism: SARS-CoV1), 1.01 µM in the experiment with HLA-B*58:01 [6] (source organism: SARS-CoV1) and 6.35 µM with HLA-A*03:01 (source organism: SARS-CoV1).

As for FAFCRITSF, the Kd with HLA-C*12:03 (setting [16]) was no more than 0.001 µM; with HLA-C*06:02 (setting [16]), 1.08 µM; with HLA-C*03:03 it was 0.002 µM.

As to AYGSRFHEW, the Kd with HLA-A*26:01 [1] (setting [17]), with HLA-B*27:05 (setting [17]), with HLA-A*69:01 [2] (setting [17]), in the experiment with HLA-A*01:01 (setting [17]), with HLA-B*40:01 (setting [17]) and with HLA-A*02:01 [3] (setting [17]) was no less than 20 µM throughout. For the same sequence, the Kd is no less than 20 µM with HLA-B*08:01 [5] (setting [17]); no less than 20 µM with HLA-B*07:02 (setting [17]); no less than 31.6 µM with HLA-A*30:01 (setting [18]); no less than 20 µM in the experiment with HLA-A*11:01 (setting [17]); 0.00184 µM with HLA-A*24:03 (setting [18]); 4.7 µM in the experiment with HLA-B*58:01 [6] (setting [18]). This sequence registered a Kd with HLA-A*03:01 (setting [17]) of no less than 20 µM.

On to AANMYIYPL, for which the Kd with HLA-B*08:01 [12] turned out to be 1.1 µM; with HLA-C*14:02 (source organism: Bacillus anthracis str. A0488), 0.057 µM.
